For this series, the target named is T1, PrimPol1-354 (polymerase domain, wild type) (human, UniProt Q96LW4 1-354).
T1 sequence: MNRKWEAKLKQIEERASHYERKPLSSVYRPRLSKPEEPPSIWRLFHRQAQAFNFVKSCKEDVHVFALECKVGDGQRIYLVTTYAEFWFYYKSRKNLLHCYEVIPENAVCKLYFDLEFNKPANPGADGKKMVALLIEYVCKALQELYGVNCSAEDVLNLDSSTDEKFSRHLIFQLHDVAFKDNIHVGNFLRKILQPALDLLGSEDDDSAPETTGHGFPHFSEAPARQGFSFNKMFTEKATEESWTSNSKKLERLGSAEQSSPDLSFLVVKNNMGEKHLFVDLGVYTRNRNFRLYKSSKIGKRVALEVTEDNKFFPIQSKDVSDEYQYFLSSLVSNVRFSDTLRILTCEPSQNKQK
Nature of the series: EMSA; 10 mM Mg2+; text gives 0.67 uM, Figure 5 legend 0.69 uM; EMSA: 60 nM DNA, 10 mM Bis-Tris-Propane-HCl pH 7.0, 10 mM MgCl2, 1 mM DTT, 25 C, 60 min; 5% polyacrylamide gel in 0.5x TBE. Conditions: protein: recombinant; label: 5'-Hex on strand 1 (HP-20); 20 bp duplex, 5' overhang 30 nt on template strand (S12), other end blunt. For orientation: A gel shift assay detects complexes by their altered migration in electrophoresis.

One may read the Kd as a measure of binding affinity in units of concentration.

B1: Overhanging DNA substrate (HP-20 primer / ND-50 TemplateTT) (dsDNA)
DNA 1: TGTCGTCTGTTCGGTCGTTC
DNA 2: CGCGCAGGGCGCACAACAGCCTTGAAGACCGAACGACCGAACAGACGACA
As for B1, the Kd was 0.69 µM.

The values above are taken from article PMC4231748, “Human PrimPol mutation associated with high myopia has a DNA replication defect”.
